# B1: 6F9 TCR (TCR)
# TCR alpha: QTVTQSQPEMSVQEAETVTLSCTYDTSESDYYLFWYKQPPSRQMILVIRQEAYKQQNATENRFSVNFQKAAKSFSLKISDSQLGDAAMYFCALRSSGTYKYIFGTGTRLKVLANIQNPDPAVYQLRDSKSSDKSVCLFTDFDSQTNVSQSKDSDVYITDKTVLDMRSMDFKSNSAVAWSNKSDFACANAFNNSIIPEDTFFPSPESSCDVKLVEKSFETDTNLNFQNLSVIGFRILLLKVAGFNLLMTLRLWSS
# TCR beta: GAGVSQSPSNKVTEKGKDVELRCDPISGHTALYWYRQSLGQGLEFLIYFQGNSAPDKSGLPSDRFSAERTGGSVSTLTIQRTQQEDSAVYLCASIRTGPFFSGNTIYFGEGSWLTVVEDLNKVFPPEVAVFEPSEAEISHTQKATLVCLATGFFPDHVELSWWVNGKEVHSGVSTDPQPLKEQPALNDSRYCLSSRLRVSATFWQNPRNHFRCQVQFYGLSENDEWTQDRAKPVTQIVSAEAWGRADCGFTSVSYQQGVLSATILYEILLGKATLYAVLVSALVLMAMVKRKDF
# What was measured:
# Assay in all cases: cell-based or functional assay
# [1] = target: MAGE-A6: 248-258 peptide presented by HLA-DP*0401 on 293-CIITA cells (human, UniProt P20036 29-260)
# [2] = target: MAGE-A3: 243-253 peptide presented by HLA-DP*0401 on 293-CIITA cells (human, UniProt P20036 29-260)
# [3] = target: MAGE-A3: 245-258 peptide presented by HLA-DP*0401 on 293-CIITA cells (human, UniProt P20036 29-260)
# [4] = target: MAGE-A3: 243-258 peptide presented by HLA-DP*0401 on 293-CIITA cells (human, UniProt P20036 29-260)
# [5] = target: MAGE-C1: 113-123 peptide presented by HLA-DP*0401 on 293-CIITA cells (human, UniProt P20036 29-260)
# [6] = target: MAGE-D2: 413-428 peptide presented by HLA-DP*0401 on 293-CIITA cells (human, UniProt P20036 29-260)
# [7] = target: MAGE-A3: 247-258 peptide presented by HLA-DP*0401 on 293-CIITA cells (human, UniProt P20036 29-260)
# [8] = target: MAGE-A4/A9: 249-259 peptide presented by HLA-DP*0401 on 293-CIITA cells (human, UniProt P20036 29-260)
# [9] = target: MAGE-A8: 251-261 peptide presented by HLA-DP*0401 on 293-CIITA cells (human, UniProt P20036 29-260)
# [10] = target: MAGE-A3: 243-255 peptide presented by HLA-DP*0401 on 293-CIITA cells (human, UniProt P20036 29-260)
# [11] = target: MAGE-A3: 249-258 peptide presented by HLA-DP*0401 on 293-CIITA cells (human, UniProt P20036 29-260)
# [12] = target: MAGE-A3: 246-258 peptide presented by HLA-DP*0401 on 293-CIITA cells (human, UniProt P20036 29-260)
# [13] = target: MAGE-A2/A12: 248-258 peptide presented by HLA-DP*0401 on 293-CIITA cells (human, UniProt P20036 29-260)
# [14] = target: MAGE-A1/B4: 241-251 peptide presented by HLA-DP*0401 on 293-CIITA cells (human, UniProt P20036 29-260)
# [15] = target: MAGE-A3: 248-258 peptide presented by HLA-DP*0401 on 293-CIITA cells (human, UniProt P20036 29-260)
# [16] = target: MAGE-A3: 243-254 peptide presented by HLA-DP*0401 on 293-CIITA cells (human, UniProt P20036 29-260)
# [17] = target: Necdin: 237-247 peptide presented by HLA-DP*0401 on 293-CIITA cells (human, UniProt P20036 29-260)
# [18] = target: MAGE-L2: 582-597 peptide presented by HLA-DP*0401 on 293-CIITA cells (human, UniProt P20036 29-260)
# [19] = target: MAGE-G1: 220-235 peptide presented by HLA-DP*0401 on 293-CIITA cells (human, UniProt P20036 29-260)
# [20] = target: MAGE-D4: 300-315 peptide presented by HLA-DP*0401 on 293-CIITA cells (human, UniProt P20036 29-260)
# [21] = target: MAGE-A3: 243-256 peptide presented by HLA-DP*0401 on 293-CIITA cells (human, UniProt P20036 29-260)
# [22] = target: MAGE-B16: 252-262 peptide presented by HLA-DP*0401 on 293-CIITA cells (human, UniProt P20036 29-260)
# [23] = target: MAGE-B10: 250-260 peptide presented by HLA-DP*0401 on 293-CIITA cells (human, UniProt P20036 29-260)
# [24] = target: MAGE-B2: 250-260 peptide presented by HLA-DP*0401 on 293-CIITA cells (human, UniProt P20036 29-260)
binder,measurement,setting,value
B1,IFN-g (pg/ml); CD4+ T cells of PBMC-1; 293-CIITA pulsed with peptide,[1],6440 pg/mL
same,IFN-g (pg/ml); CD4+ T cells of PBMC-2; 293-CIITA pulsed with peptide,[1],13200 pg/mL
same,IFN-g (pg/ml); CD4+ T cells of PBMC-1; 293-CIITA pulsed with peptide,[2],0 pg/mL
same,IFN-g (pg/ml); CD4+ T cells of PBMC-2; 293-CIITA pulsed with peptide,[2],30 pg/mL
same,IFN-g (pg/ml); CD4+ T cells of PBMC-1; 293-CIITA pulsed with peptide,[3],9290 pg/mL
same,IFN-g (pg/ml); CD4+ T cells of PBMC-2; 293-CIITA pulsed with peptide,[3],8920 pg/mL
same,IFN-g (pg/ml); CD4+ T cells of PBMC-1; 293-CIITA pulsed with peptide,[4],10200 pg/mL
same,IFN-g (pg/ml); CD4+ T cells of PBMC-2; 293-CIITA pulsed with peptide,[4],10400 pg/mL
same,IFN-g (pg/ml); CD4+ T cells of PBMC-1; 293-CIITA pulsed with peptide,[5],9 pg/mL
same,IFN-g (pg/ml); CD4+ T cells of PBMC-2; 293-CIITA pulsed with peptide,[5],25 pg/mL
same,IFN-g (pg/ml); CD4+ T cells of PBMC-1; 293-CIITA pulsed with peptide,[6],82 pg/mL
same,IFN-g (pg/ml); CD4+ T cells of PBMC-2; 293-CIITA pulsed with peptide,[6],226 pg/mL
same,IFN-g (pg/ml); CD4+ T cells of PBMC-1; 293-CIITA pulsed with peptide,[7],6710 pg/mL
same,IFN-g (pg/ml); CD4+ T cells of PBMC-2; 293-CIITA pulsed with peptide,[7],6810 pg/mL
same,IFN-g (pg/ml); CD4+ T cells of PBMC-1; 293-CIITA pulsed with peptide,[8],0 pg/mL
same,IFN-g (pg/ml); CD4+ T cells of PBMC-2; 293-CIITA pulsed with peptide,[8],22 pg/mL
same,IFN-g (pg/ml); CD4+ T cells of PBMC-1; 293-CIITA pulsed with peptide,[9],43 pg/mL
same,IFN-g (pg/ml); CD4+ T cells of PBMC-2; 293-CIITA pulsed with peptide,[9],39 pg/mL
same,IFN-g (pg/ml); CD4+ T cells of PBMC-1; 293-CIITA pulsed with peptide,[10],76 pg/mL
same,IFN-g (pg/ml); CD4+ T cells of PBMC-2; 293-CIITA pulsed with peptide,[10],111 pg/mL
same,IFN-g (pg/ml); CD4+ T cells of PBMC-1; 293-CIITA pulsed with peptide,[11],669 pg/mL
same,IFN-g (pg/ml); CD4+ T cells of PBMC-2; 293-CIITA pulsed with peptide,[11],922 pg/mL
same,IFN-g (pg/ml); CD4+ T cells of PBMC-1; 293-CIITA pulsed with peptide,[12],7140 pg/mL
same,IFN-g (pg/ml); CD4+ T cells of PBMC-2; 293-CIITA pulsed with peptide,[12],9200 pg/mL
same,IFN-g (pg/ml); CD4+ T cells of PBMC-1; 293-CIITA pulsed with peptide,[13],33 pg/mL
same,IFN-g (pg/ml); CD4+ T cells of PBMC-2; 293-CIITA pulsed with peptide,[13],37 pg/mL
same,IFN-g (pg/ml); CD4+ T cells of PBMC-1; 293-CIITA pulsed with peptide,[14],129 pg/mL
same,IFN-g (pg/ml); CD4+ T cells of PBMC-2; 293-CIITA pulsed with peptide,[14],108 pg/mL
same,IFN-g (pg/ml); CD4+ T cells of PBMC-1; 293-CIITA pulsed with peptide,[15],6220 pg/mL
same,IFN-g (pg/ml); CD4+ T cells of PBMC-2; 293-CIITA pulsed with peptide,[15],7400 pg/mL
same,IFN-g (pg/ml); CD4+ T cells of PBMC-1; 293-CIITA pulsed with peptide,[16],28 pg/mL
same,IFN-g (pg/ml); CD4+ T cells of PBMC-2; 293-CIITA pulsed with peptide,[16],30 pg/mL
same,IFN-g (pg/ml); CD4+ T cells of PBMC-1; 293-CIITA pulsed with peptide,[17],0 pg/mL
same,IFN-g (pg/ml); CD4+ T cells of PBMC-2; 293-CIITA pulsed with peptide,[17],21 pg/mL
same,IFN-g (pg/ml); CD4+ T cells of PBMC-1; 293-CIITA pulsed with peptide,[18],45 pg/mL
same,IFN-g (pg/ml); CD4+ T cells of PBMC-2; 293-CIITA pulsed with peptide,[18],78 pg/mL
same,IFN-g (pg/ml); CD4+ T cells of PBMC-1; 293-CIITA pulsed with peptide,[19],0 pg/mL
same,IFN-g (pg/ml); CD4+ T cells of PBMC-2; 293-CIITA pulsed with peptide,[19],25 pg/mL
same,IFN-g (pg/ml); CD4+ T cells of PBMC-1; 293-CIITA pulsed with peptide,[20],193 pg/mL
same,IFN-g (pg/ml); CD4+ T cells of PBMC-2; 293-CIITA pulsed with peptide,[20],194 pg/mL
same,IFN-g (pg/ml); CD4+ T cells of PBMC-1; 293-CIITA pulsed with peptide,[21],1020 pg/mL
same,IFN-g (pg/ml); CD4+ T cells of PBMC-2; 293-CIITA pulsed with peptide,[21],1670 pg/mL
same,IFN-g (pg/ml); CD4+ T cells of PBMC-1; 293-CIITA pulsed with peptide,[22],0 pg/mL
same,IFN-g (pg/ml); CD4+ T cells of PBMC-2; 293-CIITA pulsed with peptide,[22],11 pg/mL
same,IFN-g (pg/ml); CD4+ T cells of PBMC-1; 293-CIITA pulsed with peptide,[23],22 pg/mL
same,IFN-g (pg/ml); CD4+ T cells of PBMC-2; 293-CIITA pulsed with peptide,[23],28 pg/mL
same,IFN-g (pg/ml); CD4+ T cells of PBMC-1; 293-CIITA pulsed with peptide,[24],0 pg/mL
same,IFN-g (pg/ml); CD4+ T cells of PBMC-2; 293-CIITA pulsed with peptide,[24],7 pg/mL
